In article PMC4600981:

Molecular target: FvCamlp (calmodulin like EF hand protein of Flammulina velutipes), freed of the GST tag (Flammulina velutipes)
Assay: SEC; Superdex 200, 25 mM Tris-HCl pH 7.5, 150 mM NaCl, 4 °C, flow 0.4 ml/min; in absence (5.0 mM EGTA) and presence of Ca2+ (5.0 mM); monomer to dimer

stoichiometry N: 2
Substance: FvCamlp (calmodulin like EF hand protein of Flammulina velutipes), freed of the GST tag (natural protein)
